In patent US20230235333, “APTAMER FOR IL-21 AND USE THEREOF” (RIBOMIC INC, published 2023):

How the values were obtained:
Details in all cases: tags: PeproTech
IL-21 (interleukin-21) [1] = molecular target: T1, IL-21 (interleukin-21) (Homo sapiens, UniProt Q9HBE4 SEQ:25-162); test: SPR; negative control, no binding
IL-21 (interleukin-21) [2] = molecular target: T1, IL-21 (interleukin-21); test: cell_activity; 10 nM aptamer
Description: (§1) After overnight culture, the same medium was used to seed 2×10⁴ cells per well for testing. Human IL-21 alone or a mixed solution of human IL-21 and aptamer was added thereto and the cells were cultured for 16 hr. The final concentration of human IL-21 was adjusted to 0.05 nM. After 16 hr, the culture supernatant was collected and IFN-γ contained in the supernatant was quantified by sandwich ELISA method. An ELISA Kit manufactured by R&D Systems or Diaclone was used for quantification. After quantification, the inhibitory rate was calculated using the following formula.
Whether these aptamers bind to human IL-21 and inhibit the function thereof was evaluated by a method similar to that in Example 1. Aptamers were obtained by transcription using double-stranded DNA as a template. The evaluation of inhibition in the cell assay system was performed at a nucleic acid final concentration of 10 nM. […] In the Table, “n.d.” indicates unmeasured.

IL-21 (interleukin-21) [3] = molecular target: T1, IL-21 (interleukin-21); test: cell_activity; 1 nM aptamer; 100.0 at 0.2 nM
Description: as §1
Whether these aptamers bind to human IL-21 and inhibit the function thereof was evaluated by preparing the aptamers by chemical synthesis and using a method similar to that in Example 1. The evaluation of inhibition in the cell assay system was performed at nucleic acid final concentrations of 1 nM and 0.2 nM. […] In the Table, “n.d.” indicates unmeasured.

IL-21 (interleukin-21) [4] = molecular target: T1, IL-21 (interleukin-21); test: cell_activity; 10 nM aptamer, scored −
Description: as §1
Whether these aptamers bind to human IL-21 and inhibit the function thereof was evaluated by a method similar to that in Example 1. Aptamers were obtained by transcription using double-stranded DNA as a template. […] In addition, “n.d.” indicates unmeasured.

IL-21 (interleukin-21) [5] = molecular target: T1, IL-21 (interleukin-21); test: cell_activity; 1 nM aptamer; 100.0% at 0.1 nM
Description: as §1
Whether these aptamers bind to human IL-21 and inhibit the function thereof was evaluated by preparing the aptamers by chemical synthesis and using a method similar to that in Example 1. The evaluation of inhibition in the cell assay system was performed at nucleic acid final concentrations of 1 nM and 0.1 nM. […] In the Table, “n.d.” indicates unmeasured.

IL-21 (interleukin-21) [6] = molecular target: T1, IL-21 (interleukin-21); test: cell_activity; IFN-gamma secretion from NK92 cells stimulated with human IL-21
Description: as §1
Whether these aptamers bind to human IL-21 and inhibit the function thereof was evaluated by preparing the aptamers by chemical synthesis and using a method similar to that in Example 1. […] The evaluation of inhibition in the cell assay system was performed at nucleic acid final concentrations of 1 nM and 0.2 nM. In addition, in a cell assay system, the aptamer concentration (IC₅₀) at which IFN-γ secretion was inhibited by 50% by IL-21 stimulation was determined. In the Table, “n.d.” indicates unmeasured.

T1 sequence (Q9HBE4 25-162): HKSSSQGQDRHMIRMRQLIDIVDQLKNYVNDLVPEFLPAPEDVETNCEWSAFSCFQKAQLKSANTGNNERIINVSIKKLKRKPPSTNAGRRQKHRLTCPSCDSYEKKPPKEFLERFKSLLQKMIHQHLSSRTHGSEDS

B1: SEQ49 negative control 51mer (ssRNA)
RNA: GGGAAGCUCCGUCGAGCUUUCCUGCAUAAGCUGUAUUGCAGCCAGCAUUUA
B1: no binding (IL-21 (interleukin-21) [1]).

In the case of GGACCGUCAACACGCGACUACUCGUGAUUGCCCGUCC (ssRNA, 2'-F all pyrimidines) [SEQ39], the activity (IL-21 (interleukin-21) [2]) is reported as 56.1 % inhibition.

Binder GGACCUUCAACACGCGGCUACUCGUGAUUGCCCGUCC (ssRNA, as SEQ22(2) plus 5'-PEG 40 kDa; 3'-idT) [SEQ22(15)] has an activity (IL-21 (interleukin-21) [3]) of 100 % inhibition.

In the case of GGACCUUCAACACGCGACGACUCGUGAUUGCCCGUCC (ssRNA, 2'-F all pyrimidines) [SEQ41], the activity (IL-21 (interleukin-21) [2]) is reported as 32.4 % inhibition.

B2: SEQ22(1) (ssRNA)
RNA: GGACCUUCAACACGCGGCUACUCGUGAUUGCCCGUCC
modifications: 2'-OMe 1-3,9-14,20,21,24-27,30-32,34-37; 2'-F 4-8,15,18,19,22,23,28,29,33; 2'-OH G16,G17; 3'-idT
B2 gave an activity (IL-21 (interleukin-21) [3]) of 100 % inhibition.

GGACCUCCAACACGCGACUACUCGUGAUUGCCCGUCC (ssRNA, 2'-F all pyrimidines) [SEQ40] was tested, and the activity (IL-21 (interleukin-21) [2]) was 42 % inhibition.

With GGACCUUCAACACGCGACUACUCGUGAUUGCACGUCC (ssRNA, 2'-F all pyrimidines) [SEQ43] the activity (IL-21 (interleukin-21) [2]) was 43.7 % inhibition.

Binder GGACCUUCAACACGCGGCUACUCGUGAUUGCCCGUCC (ssRNA, as SEQ22(1) plus 2'-OMe C4,U28,U29; 3'-idT) [SEQ22(2)] has an activity (IL-21 (interleukin-21) [3]) of 100 % inhibition.

Binder GGACCUUCAACACGCGACUACCCGUGAUUGCCCGUCC (ssRNA, 2'-F all pyrimidines) [SEQ42] has an activity (IL-21 (interleukin-21) [2]) of 39 % inhibition.

GGACCUUCAACACGCGAUACUCGUGAUUGCCCGUCC (ssRNA, 2'-F pyrimidines) [SEQ14] gave an activity (IL-21 (interleukin-21) [4]) of 13.3 % inhibition.

Binder GGACCUUCAACACGCGACACUCGUGAUUGCCCGUCC (ssRNA, 2'-F pyrimidines) [SEQ15] has an activity (IL-21 (interleukin-21) [4]) of 10.7 % inhibition.

In the case of GGACCUUCAACACGCGACUCUCGUGAUUGCCCGUCC (ssRNA, 2'-F pyrimidines) [SEQ16], the activity (IL-21 (interleukin-21) [4]) is reported as 10.7 % inhibition.

For GACCUUCAACCCGCGGCUACUCGGGAUUGCCCGUC (ssRNA, as SEQ38(1) with PS after G15) [SEQ38(14)], the activity (IL-21 (interleukin-21) [5]) was 100 % inhibition.

GACCUUCAACCCGCGGCUACUCGGGAUUGCCCGUC (ssRNA, as SEQ38(1) with PS after G16) [SEQ38(15)] showed an activity (IL-21 (interleukin-21) [5]) of 100 % inhibition.

Binder GACCUUCAACCCGCGGCUACUCGGGAUUGCCCGUC (ssRNA, as SEQ38 plus 5' 40 kDa PEG) [SEQ38(1)] has an IC50 (IL-21 (interleukin-21) [6]) of 0.02 nM.

Work on GACCUUCAACCCGCGGCUACUCGGGAUUGCCCGUC (ssRNA, as SEQ38(1) with PS after G15,G16) [SEQ38(18)] yielded an activity (IL-21 (interleukin-21) [5]) of 100 % inhibition.
